Laboratory results from patent publication US9878005B2, “Method of promoting wound healing with hyodxia-induced mitogenic factor” (THE JOHNS HOPKINS UNIVERSITY, priority 2003, dated 2018).

Legend:
[1] = system: rat pulmonary microvascular smooth muscle cells (RPSM); experiment: 3H-thymidine incorporation assay (RPSM proliferation); assay type: cell-based; settings: for inhibition of serum-induced RPSM proliferation: preliminary experiments
Excerpt: Cell culture and ^3H-thymidine incorporation assays. Rat pulmonary microvascular smooth muscle cells (RPSM) were isolated from male Sprague-Dawley rats (150-200 g) according to a published method2. Briefly, after the pulmonary artery was flushed with phosphate buffered saline (PBS), it was infused with 2% iron oxide suspension in 0.5% agar. The air spaces were filled with agar, the subpleural margins were harvested and partially collagenase digested, and the microvessels were separated magnetically. The identity of RPSM was confirmed by characteristic appearance on phase-contrast microscopy and indirect immunofluorescent antibody staining for smooth muscle-specific isoforms of […] and myosin heavy chain. RPSM were grown in DMEM/F12 medium supplemented with 10% fetal bovine serum (FBS), 2 mM of glutamine, […] of penicillin and 100 μg/ml of streptomycin. Passage 3 to 5 cells were used in the experiments.
The cells were seeded in 24-well plates at 5×10^4/well. After synchronization with serum-free DMEM/F12 (supplemented with 1% Bovine serum albumin (BSA)) for 24 to 48 hours, the cells were treated with the specified agents and 0.1 μCi/well (or 1 μCi/well) of 3H-thymidine in the serum-free DMEM/F12 for 48 hours. After the experimental protocol was completed, the cells were rinsed with PBS twice and incubated in 10% TCA for 30 min. The cells were then washed with PBS two more times and lysed in 250 μl of the lysis buffer (1% SDS, 0.8% NaOH). 3H-thymidine incorporation was measured with a Beckman 6500 scintillation counter in 10 ml of scintillation cocktail.

[2] = system: Akt phosphorylation (PI3K/Akt pathway) in RPSM; experiment: Western blot for pAkt and Akt in RPSM; assay type: cell-based, rat; settings: for inhibition of HIMF-activated Akt phosphorylation: 5 minutes
Protocol: Western blots. The tissue collection and homogenization were performed as described before^1. HIMF was detected with 1:1000 dilution of the anti-HIMF antibody (raised in rabbit using the peptide CENKVKELLANPANYP (SEQ ID NO: 10) conjugated to keyhole limpet hemocyanin as the antigen) followed by 1:3000 dilution of goat anti-rabbit HRP-labeled antibody (BioRad, Hercules, Calif.). The specificity of the anti-HIMF antibody was preliminarily characterized with peptide competition. The peptide used as the immunogen blocked only the HIMF band and had no effect on the nonspecific bands. For phospho-Akt (pAkt) and Akt blots, RPSM were lysed in CelLytic-M (Sigma, St. Louis, Mo.) supplemented with 1 mM PMSF and 1:100 of protease inhibitor cocktail, phosphatase inhibitor cocktail 1 and 2 (Sigma, St. Louis, Mo.). 18 μg of protein in equal volume was subjected to electrophoresis in 4-20% polyacrylamide gel (BioRad, Hercules, Calif.). After transfer to nitrocellulose membrane, the membrane was first probed with anti-pAkt1/2/3(Thr308)(1:500, (Santa Cruz Biotechnology, Santa Cruz, Calif.). Then it was stripped and reprobed with anti-Akt1/2/3 (1:500, (Santa Cruz Biotechnology, Santa Cruz, Calif.).

[3] = system: Akt phosphorylation in L2 cells; experiment: Akt phosphorylation in L2 cells (HIMF isolation vs mock isolation); assay type: cell-based
Protocol: Recombinant HIMF. The C-terminal tagged HIMF was generated by PCR and inserted into pcDNA5/FRT/TO vector using the EcoR V and Xho I restriction sites. The pcDNA5/FRT/TO vector containing the recombinant HIMF gene was then integrated in a Flp recombinase-dependent manner into the genome of the Flp-In™ T-REx™ 293 cell line using the Flp-In™ T-REx™ kit from Invitrogen (Carlsbad, Calif.). Production of recombinant HIMF was induced by tetracycline (1 μg/ml) in the 293 cells maintained in DMEM supplemented with 5% FBS, 2 mM of glutamine, 100 U/ml of penicillin and 100 μg/ml of streptomycin, 100 μg/ml of hygromycin B, and 7.5 μg/ml of blasticidin. HIMF was purified by anti-FLAG M2 antibody agarose (Sigma, St. Louis, Mo.) column chromatography from the 293 cell culture medium with FLAG (0.1 mg/ml) elution. The concentration of the HIMF protein was estimated semi-quantitatively by silver staining after SDS-PAGE using BSA as the standard. […] Therefore, the recombinant protein has 96 amino acids and has a calculated molecular weight of 10,444 Da. […] To exclude the role of possible contaminants such as insulin, a mock isolation control experiment was performed. The medium obtained from the control TREx-293 cell culture was used for the mock isolation. […]

[4] = system: vascular tube formation in the Matrigel plug; experiment: Matrigel plug assay in vivo; set-up: species or system mouse; settings: HIMF 50 nM final, subcutaneous, 7 days; FLAG control 4.3±0.84; n=3, P<0.001
Protocol: Matrigel plug assays: 200 μl of Matrigel mixed with FLAG or HIMF (50 nM final) was injected subcutaneously (n=3 for each group) on the back of mice. Mice were sacrificed after 7 days and the Matrigel plugs collected. Following fixation in 4% paraformaldehyde in PBS ([…], pH 7.4), 10 μm frozen sections were cut and stained either with hemotoxylin and eosin (HE) or von Willebrand factor (vWF). For the detection of vWF, anti-human vWF (1:250 dilution, Dako) and anti-rabbit IgG conjugated with FITC (1:500 dilution) were used. The positive cells were counted and expressed as cell numbers per 20× field.

[5] = system: pulmonary vasculature; experiment: Intact chest mouse experiment; assay type: in vivo; settings: intravenous injection
Protocol: Intact chest mouse experiment. The animals were ventilated with 95% O2/5% CO2 and 2% isoflurane using a custom-designed, constant-flow mouse ventilator with tidal volume set to 6.7 ml/kg at 140 breaths/min. A femoral artery was cannulated for the measurement of systemic arterial pressure, which was measured with a Viggo-Spectramed transducer attached to a polygraph (Grass Instruments, model 7). Heart rate was determined from the systolic pressure pulses with a tachometer (Grass, model 7P44A), and the left jugular vein was cannulated for the administration of drugs. The animals were strapped in the supine position to a fluoroscopic table, and PAP was measured with a specially designed murine pulmonary arterial catheter attached to a pressure transducer (Schneider/Namic). Mean PAP was derived electronically, and pulmonary arterial wedge pressure was determined by recently described procedures^6. Cardiac output was measured by the thermodilution technique by injection of a known volume (20 μl) of 0.9% NaCl solution at 23° C. into the right atrium and measurement of blood temperature changes in the root of the aorta with a cardiac output computer (Cardiotherm 500, Columbus Instruments, Columbus, Ohio) equipped with a small-animal interface. A thermistor microprobe (Columbus Instruments, Fr-1) was inserted into the right carotid artery and advanced to the aortic arch, where changes in aortic blood temperature were measured.

`O=c1c(-c2ccc(O)cc2)coc2cc(O)cc(O)c12` [Genistein, reference compound] was tested, and the “inhibition of serum-induced RPSM proliferation” value [1] was “inhibit” and the “inhibition of HIMF-activated Akt phosphorylation” value ([2]; inhibitor 20 μmol/L, HIMF 5×10^−8 mol/L) was “did not inhibit”.

In the case of `O=C(Nc1cc(C(=O)Nc2ccc(S(=O)(=O)[O-])cc2S(=O)(=O)[O-])cc(C(=O)Nc2ccc(S(=O)(=O)[O-])cc2S(=O)(=O)[O-])c1)Nc1cc(C(=O)Nc2ccc(S(=O)(=O)[O-])cc2S(=O)(=O)[O-])cc(C(=O)Nc2ccc(S(=O)(=O)[O-])cc2S(=O)(=O)[O-])c1.[Na+].[Na+].[Na+].[Na+].[Na+].[Na+].[Na+].[Na+]` [NF449, reference compound], the “inhibition of serum-induced RPSM proliferation” value [1] is reported as “inhibit” and the “inhibition of HIMF-activated Akt phosphorylation” value ([2]; inhibitor 50 μmol/L, HIMF 5×10^−8 mol/L) is reported as “did not inhibit”.

B1: HIMF: hypoxia-induced mitogenic factor; recombinant C-terminal FLAG-tagged protein of 96 amino acids purified from 293 cell culture medium (protein, UniProt Q9EP95 24-111, looked up)
Resistin-like alpha: DETIEIIVENKVKELLANPANYPSTVTKTLSCTSVKTMNRWASCPAGMTATGCACGFACGSWEIQSGDTCNCLCLLVDWTTARCCQLS
modifications: C-terminal FLAG tag
notes: hypoxia-induced mitogenic factor; recombinant C-terminal FLAG-tagged protein of 96 amino acids purified from 293 cell culture medium
With B1 the “proliferation of RPSM (3H-thymidine incorporation)” value ([1]; HIMF 3.3×10^−9 to 3.3×10^−8 mol/L) was “dose-dependently increased”, the “Akt activation sustained through” value ([2]; HIMF 5×10^−8 mol/L) was at least 60 min and the “activation of phosphorylation of Akt” value ([2]; HIMF 5×10^−8 mol/L) was “strongly activated”. The “time of peak Akt activation (phosphorylation)” value ([2]; HIMF 5×10^−8 mol/L) was 5 min, the “activation of Akt by the recombinant protein” value ([2]; preliminary experiments) was “activated” and the “Akt phosphorylation in L2 cells” value ([3]; HIMF isolation, mock isolation had no effect) was “stimulated”. For the same molecule, the “activation of Akt by the recombinant protein” value ([3]; L2 cells, preliminary experiments) was “activated”, the “vascular tube formation in the Matrigel plug” value [4] was 17.7±1.37 /×20 field and the “pulmonary arterial pressure (PAP)” value [5] was “increased”. For the same molecule, the “pulmonary vascular resistance (PVR)” value [5] was “increased” and the “pulmonary vasoconstrictor potency versus endothelin-1, angiotensin II, or serotonin (molar dose-response curves)” value [5] was “more potent”.
